This is an account of results in patent publication US20230302104.

The target of data set [1] is AAT (alpha1-antitrypsin; preparation not stated in Example 15), P01009.
Data set [2] has as its target rhAAT (recombinant alpha1-antitrypsin, preparations not specified per panel).

Chain of AAT (alpha1-antitrypsin; preparation not stated in Example 15), P01009 (P01009 whole entry, looked up): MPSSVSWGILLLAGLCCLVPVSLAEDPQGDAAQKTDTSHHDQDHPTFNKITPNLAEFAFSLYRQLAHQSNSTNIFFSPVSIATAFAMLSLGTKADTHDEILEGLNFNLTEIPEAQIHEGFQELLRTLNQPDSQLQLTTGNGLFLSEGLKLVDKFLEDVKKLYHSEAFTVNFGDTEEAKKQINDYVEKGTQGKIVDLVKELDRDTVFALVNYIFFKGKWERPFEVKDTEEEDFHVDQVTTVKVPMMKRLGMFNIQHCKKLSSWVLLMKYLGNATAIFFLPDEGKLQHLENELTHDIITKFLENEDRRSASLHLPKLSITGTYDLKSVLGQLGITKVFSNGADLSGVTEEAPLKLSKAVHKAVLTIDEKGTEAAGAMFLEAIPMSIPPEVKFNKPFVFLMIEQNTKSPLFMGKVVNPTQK

B1: TMPRSS2 recombinant protein (creative biomart) (protein)
chain: WKFMGSKCSNSGIECDSSGTCINPSNWCDGVSHCPGGEDENRCVRLYGPNFILQVYSSQRKSWHPVCQDDWNENYGRAACRDMGYKNNFYSSQGIVDDSGSTSFMKLNTSAGNVDIYKKLYHSDACSSKAVVSLRCIACGVNLNSSRQSRIVGGESALPGAWPWQVSLHVQNVHVCGGSIITPEWIVTAAHCVEKPLNNPWHWTAFAGILRQSFMFYGAGYQVEKVISHPNYDSKTKNNDIALMKLQKPLTFNDLVKPVCLPNPGMMLQPEQLCWISGWGATEEKGKTSEVLNAAKVLLIETQRCNSRYVYDNLITPAMICAGFLQGNVDSCQGDSGGPLVTSKNNIWWLIGDTSWGSGCAKAYRPGVYGNVMVFTDWIYRQMRADG
Consider B1, for which the “TMPRSS2 protease activity (cleavage of Boc-QAR-AMC peptide, fluorescence, Vmax)” value in data set [1] is given as “AAT inhibits TMPRSS2 protease activity”.

B2: purified human neutrophil elastase (ELA2) (protein)
chain: IVGGRRARPHAWPFMVSLQLRGGHFCGATLIAPNFVMSAAHCVANVNVRAVRVVLGAHNLSRREPTRQVFAVQRIFENGYDPVNLLNDIVILQLNGSATINANVQVAQLPAQGRRLGNGVQCLAMGWGLLGRNRGIASVLQELNVTVVTSLCRRSNVCTLVRGRQAGVCFGDSGSPLVCNGLIHGIASFVRGGCASGLYPDAFAPVAQFVNWIDSIIQ
With B2, the “neutrophil elastase protease activity, MeOSuc-AAPV-pNA substrate assay (Vmax, % of untreated); AAT at 1 nM and 10 nM” value in data set [2] is “AAT and rhAAT inhibits neutrophil elastase protease activity”.
